Reference: patent US20080227700A1, “Compositions and Methods for Treatment of Protein Misfolding and Protein Aggregation Diseases” (priority 2004, published 2008)

Tests used:
βH crystallin = assay: Chaperone assay, thermal aggregation of βH crystallin; format: biochemical; settings: 50:1 molar ratio of peptide:βH crystallin; 50° C., sixty minutes; light scattering λ=340 nm; no peptide = 0% protection
Method: (§1) The chaperone activity of the peptides was measured as their ability to protect against the thermal aggregation of three chaperone target proteins βH crystallin, ADH and CS in chaperone assays performed at 50° C. (FIG. 19). A non-interactive αB crystallin sequence 111HGKHEERQDE120 was used as the negative control in the chaperone assays (FIG. 19). Based on near and far UVCD, the three target proteins unfolded in the order: CS>>>ADH>>βH crystallin when they were heated at 50° C. for sixty minutes (FIGS. 15 and 16). The thermal aggregation of βH crystallin, ADH and CS was measured as light scattering at λ=340 nm in the presence and absence of each peptide. The chaperone activity of each peptide was calculated as percent protection in which the aggregation of each target protein in the absence of any peptides was set at 0% protection (FIG. 19). The interactive peptides 73DRFSVNLDVKHFS85 and 131LTITSSLSDGV141 were effective inhibitors of aggregation of all three chaperone target proteins.
(§2) A (top left): thermal aggregation of chaperone target proteins βH crystallin, ADH and CS in the absence of peptides was measured as light scattering at λ=340 nm. Each target protein was heated at 50° C. for sixty minutes in the absence or presence of one of the peptides. […] The chaperone activity of each peptide was calculated as percent protection in which the aggregation of each target protein in the absence of any peptides was set at 0% protection. The ability of the 73DRFSVNLDVKHFS85, 131LTITSSLSDGV141 and 111HGKHEERQDE120 to protect against the thermal aggregation of βH crystallin (B: top right), ADH (C: bottom left) and CS (D: bottom right) were tested in vitro (vertical bars). […] A 10:1 molar ratio of peptide:target protein was sufficient in conferring significant protection against the aggregation of CS by 73DRFSVNLDVKHFS85 and 131LTITSSLSDGV141.

amyloid beta (1-42) = amyloid beta (1-42) (Homo sapiens, UniProt P05067); assay: Cu+++-induced aggregation of amyloid-beta (1-42) in vitro, light scattering; format: biochemical; settings: 100 mM Cu+++, 360 nm; for preventing the Cu+++-induced aggregation of amyloid-beta: 1:1 and 1:10 molar ratio of amyloid-beta to peptide; for preventing the Cu+++ induced aggregation of amyloid-beta: 10:1 molar ratio of amyloid-beta to peptide
Method: In vitro assays were also performed to measure the ability of the human αB crystallin derived peptides identified in Example 1 to inhibit aggregation of Cu^+++-induced amyloid beta (1-42) aggregation. Aggregation assays were performed using routine procedures, in the presence or absence of a synthesized peptide identified in Example 1, in the presence of 100 mM Cu^+++. Aggregation was measured spectrophotometrically as light scattering at a wavelength of 360 nm. Aggregated amyloid-beta was assigned a value of 100% aggregation and used to normalize aggregation in the presence of synthesize peptides.
Aggregation was measured spectrophotometrically as light scattering at a wavelength of 360 nm. Aggregated amyloid-beta was assigned a value of 100% aggregation and used to normalize aggregation in the presence of synthesize peptides. Aggregation was plotted as a bar graph with the standard error for duplicate experiments. The 1st vertical bar is the scattering measured for aggregated amyloid-beta (100% aggregation) in the presence of 100 mM Cu^+++. The 2nd-4th vertical bars is the scattering from amyloid-beta in the presence of wild type recombinant human αB crystallin. The 5th-13th vertical bars are the scattering of amyloid-beta in the presence of the synthetic peptides, DRFSVNLDVKHFS or LTITSSLSDGV or HGKHEERQDE at selected concentrations. A prefix of 10× represents a 10:1 molar concentration of amyloid-beta to either wild type αB crystallin or its peptides. A prefix of 1X represents a 1:1 molar concentration of amyloid-beta to either wt αB crystallin or its peptides. A prefix of 0.1× represents a 1:10 molar concentration of amyloid-beta to either wt αB crystallin or its peptides.

Aβ = Aβ (Homo sapiens, UniProt P05067); assay: Aβ ThioflavinT fluorescence (fibrillization of Aβ); format: biochemical; settings: 1:10 Aβ:peptide; for effect on the fibrillization of Aβ: ThioflavinT fluorescence after 72 hrs, comparison among αB crystallin and five peptides
Method: Aβ Thioflaviin T fluorescence. Aβ fibrils were grown in the presence and absence of αB crystallin and peptides in conditions similar to that previously described for the presence of αB crystallin. Bakthisaran et al., Biochem J, 2005. Peptides were dissolved to 9.1 mM in trifluorethanol (TFE) and diluted to 0.91 mM stock solutions in 50 mM PBS, 100 mM NaCl, pH 7.4. 3.5 mg of ThioflavinT was dissolved in 100 μl of 50 mM Glycine pH 8.5. A stock solution of 1 mg/ml (0.22 mM) Aβ was prepared. 20 μl Aβ, 50 μl chaperone, 2 μl ThioflavinT was mixed with 28 μl 50 mM PBS, 100 mM NaCl, pH 7.4. Fluorescence was read using a Beckman Coultier DTX 880 multimode detector. Samples were heated at 50° C. for 72 hours and fluorescence was read again.
(§3) The fibrillization of Aβ was measured as fluorescence of the fluorescent dye ThioflavinT from solutions containing 1:10 monomeric molar ratio of Aβ:peptide. In the absence of Aβfibrils, ThioflavinT had little or no fluorescence. The fluorescence of the ThioflavinT bound to Aβ fibrils in the absence of any other molecule after 72 hrs was set to 100%. […] Fibril formation=ΔfluorescenceAβ (with chaperone)*100/ΔfluorescenceAβ (without chaperone).

ADH = target: T1, ADH (Equus caballus, UniProt P00327); assay: Chaperone assay, thermal aggregation of ADH; format: biochemical; settings: 50:1 molar ratio of peptide:ADH; 50° C., sixty minutes; light scattering λ=340 nm; no peptide = 0% protection
T1 construct: purchased
T1 sequence (P00327 whole entry): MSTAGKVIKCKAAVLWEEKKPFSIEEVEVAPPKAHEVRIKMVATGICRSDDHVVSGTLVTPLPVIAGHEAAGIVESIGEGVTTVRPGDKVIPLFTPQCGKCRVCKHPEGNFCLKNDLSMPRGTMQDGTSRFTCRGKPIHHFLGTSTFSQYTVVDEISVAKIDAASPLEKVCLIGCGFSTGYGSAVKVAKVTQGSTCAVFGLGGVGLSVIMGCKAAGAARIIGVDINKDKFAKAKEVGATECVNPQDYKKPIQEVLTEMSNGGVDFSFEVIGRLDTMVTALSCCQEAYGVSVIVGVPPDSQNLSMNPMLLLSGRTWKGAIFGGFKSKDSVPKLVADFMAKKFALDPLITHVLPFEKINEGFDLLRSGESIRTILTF
Method: as §1, §2

βL crystallin = assay: Chaperone assay, thermal aggregation of βL crystallin; format: biochemical; settings: light scattering at λ=340 nm; 1:10 target protein:peptide; comparison among five peptides
Method: Chaperone Assays. Chaperone assays of the five peptides were performed using previously established methods with minor modifications. Muchowski et al., J Mol Biol 289: 397-411, 1999. A 1:1 monomeric molar ratio of chaperone: target protein was determined to be the optimum ratio and all subsequent chaperone assays of the β3 mutants were performed in triplicate and at a 1:1 monomeric molar ratio of chaperone: target protein in a 96-well ELISA micro-titer plate. […] of the chaperone and βL crystallin were mixed in a total volume of 200 μL buffer (5 mM PBS, pH 7.0). Light scattering at λ=340 nm was measured using a Multiskan MCC/340 plate reader before heating (time=0). After the first reading, the plate was heated at 50° C. and readings were taken at fifteen minute intervals for one hour.
The ability of the peptides to suppress the thermal aggregation of βL crystallin was measured spectrophotometrically as light scattering at λ=340 nm from solutions containing 1:10 monomeric molar ratio of target protein: peptide.

CS = target: T2, CS (Sus scrofa, UniProt P00889); assay: Chaperone assay, thermal aggregation of CS; format: biochemical; settings: 10:1 molar ratio of peptide:CS; 50° C., sixty minutes; light scattering λ=340 nm; no peptide = 0% protection
T2 construct: purchased
T2 sequence (P00889 28-464): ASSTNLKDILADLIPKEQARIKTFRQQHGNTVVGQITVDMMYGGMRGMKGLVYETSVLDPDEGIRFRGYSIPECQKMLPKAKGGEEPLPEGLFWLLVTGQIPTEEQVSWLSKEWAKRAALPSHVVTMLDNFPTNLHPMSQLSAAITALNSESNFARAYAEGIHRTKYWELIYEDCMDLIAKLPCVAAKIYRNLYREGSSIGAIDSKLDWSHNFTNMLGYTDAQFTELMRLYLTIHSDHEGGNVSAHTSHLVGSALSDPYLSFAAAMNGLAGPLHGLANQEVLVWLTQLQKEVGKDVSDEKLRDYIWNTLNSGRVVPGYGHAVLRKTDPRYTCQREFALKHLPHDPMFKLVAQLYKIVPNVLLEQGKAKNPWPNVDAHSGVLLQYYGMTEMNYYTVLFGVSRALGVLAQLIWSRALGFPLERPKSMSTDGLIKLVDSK
Method: as §1
A (top left): thermal aggregation of chaperone target proteins βH crystallin, ADH and CS in the absence of peptides was measured as light scattering at λ=340 nm. […] The chaperone activity of each peptide was calculated as percent protection in which the aggregation of each target protein in the absence of any peptides was set at 0% protection. […]

[1] = as provided by manufacturer (Mimotopes); cited from earlier work
γD crystallin = target: T3, γD crystallin (Homo sapiens, UniProt P07320); assay: γD crystallin ThioflavinT fluorescence (fibrillization of γD crystallin); format: biochemical; settings: ThioflavinT; 50° C. for 72 hours; 1:1 γD crystallin:peptide; no chaperone 888,803,840
T3 sequence (P07320 1-174): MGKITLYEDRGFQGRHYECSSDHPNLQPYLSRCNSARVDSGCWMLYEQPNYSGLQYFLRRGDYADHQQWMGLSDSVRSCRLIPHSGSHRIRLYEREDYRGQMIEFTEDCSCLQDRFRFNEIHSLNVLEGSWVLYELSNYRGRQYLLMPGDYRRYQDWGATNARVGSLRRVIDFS
Method: γD crystallin Thioflaviin T fluorescence. γD crystallin fibrils were formed in a similar way to that of γ crystalline. Meehan et al., J Biol Chem 279: 3413-3419, 2004. Peptides were dissolved to […] IN tfe AND DILUTED to 0.91 mM stock solutions in 10% TFE, pH 2.0.
3.5 mg of ThioflavinT was dissolved in 100 μL of 50 mM Glycine pH 8.5. A stock solution of 1 mg/ml (0.22 mM) Aβ was prepared. 20 μl Aβ, 5 μl chaperone, 2 μl ThioflavinT was mixed with 73 μL 10% TFE, pH 2.0. Fluorescence was read using a Beckman Coultier DTX 880 multimode detector. Samples were heated at 50° C. for 72 hours and fluorescence was read again.
as §3, with “γD crystallin” for “Aβ”, “1:1” for “1:10”, “γD crystallin:peptide.” for “Aβ:peptide.”, “fibrils” for “Aβfibrils,”, “formation=ΔfluorescenceγD crystallin” for “formation=ΔfluorescenceAβ”, “chaperone)*100/ΔfluorescenceγD crystallin” for “chaperone)*100/ΔfluorescenceAβ”

Sequence | percent protection against thermal aggregation of βH crystallin (βH crystallin) | preventing the Cu+++-induced aggregation of amyloid-beta (amyloid beta (1-42)) | preventing the Cu+++ induced aggregation of amyloid-beta (amyloid beta (1-42)) | effect on the fibrillization of Aβ (Aβ) | percent protection against thermal aggregation of ADH (ADH) | effect on the thermal aggregation of βL crystallin (chaperone activity) (βL crystallin) | percent protection against thermal aggregation of CS (CS) | Hydrophobicity [1] | Δfluorescence (γD crystallin) (γD crystallin) | Δfluorescence (Aβ) (Aβ; ThioflavinT, 50° C. for 72 hours, no chaperone 1,324,974,048)
DRFSVNLDVKHFS | approximately 30% | equally effective | less effective | strongest effect | approximately 30% | slightly lower than the HG peptide |  |  |  | 
HGKHEERQDE | No protection | equally effective | less effective | weakest effect | No protection | strongest effect | partial protection |  |  | 
HFSPEELK [Peptide 42] |  |  |  |  |  |  |  | 0.25 |  | 
LTITSSLSDGV | approximately 30% | equally effective | less effective |  | approximately 30% | slightly lower than the HG peptide |  |  | 675,352,992 | 352,301,312
